Assay in all cases: cell-based or functional assay
The target of assay [1] is receptor of ecotropic murine leukaemia virus Rec1 (murine) (UniProt Q09143).
For assay [2] the target is unchanged. The source holds these as a separate data set.
Assay [3] has the same target. The source holds these as a separate data set.

Read-outs that look alike come from different tables or passages of the source.

Chain of envelope protein of ecotropic Friend murine leukaemia virus molecular clone PVC-211 (P26803 35-676 limits assumed): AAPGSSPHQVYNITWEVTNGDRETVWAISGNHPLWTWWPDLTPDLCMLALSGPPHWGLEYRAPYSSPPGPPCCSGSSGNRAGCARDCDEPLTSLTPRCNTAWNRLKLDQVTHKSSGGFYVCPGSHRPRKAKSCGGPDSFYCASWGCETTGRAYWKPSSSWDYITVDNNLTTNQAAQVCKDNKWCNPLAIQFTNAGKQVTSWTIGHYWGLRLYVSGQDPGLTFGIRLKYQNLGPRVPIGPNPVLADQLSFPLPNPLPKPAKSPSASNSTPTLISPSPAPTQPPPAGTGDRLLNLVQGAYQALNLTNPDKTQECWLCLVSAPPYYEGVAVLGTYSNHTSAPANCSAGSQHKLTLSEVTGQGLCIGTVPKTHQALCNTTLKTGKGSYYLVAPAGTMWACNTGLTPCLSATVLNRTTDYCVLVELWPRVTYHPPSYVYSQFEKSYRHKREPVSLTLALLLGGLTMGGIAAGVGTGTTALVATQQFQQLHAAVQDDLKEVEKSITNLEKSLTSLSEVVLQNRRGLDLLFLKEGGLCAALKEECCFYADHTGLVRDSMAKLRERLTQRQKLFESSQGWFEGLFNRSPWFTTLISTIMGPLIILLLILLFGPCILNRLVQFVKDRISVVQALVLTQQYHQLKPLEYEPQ
Chain of wild type envelope of ecotropic Moloney murine leukaemia virus (P03385 34-665 limits assumed): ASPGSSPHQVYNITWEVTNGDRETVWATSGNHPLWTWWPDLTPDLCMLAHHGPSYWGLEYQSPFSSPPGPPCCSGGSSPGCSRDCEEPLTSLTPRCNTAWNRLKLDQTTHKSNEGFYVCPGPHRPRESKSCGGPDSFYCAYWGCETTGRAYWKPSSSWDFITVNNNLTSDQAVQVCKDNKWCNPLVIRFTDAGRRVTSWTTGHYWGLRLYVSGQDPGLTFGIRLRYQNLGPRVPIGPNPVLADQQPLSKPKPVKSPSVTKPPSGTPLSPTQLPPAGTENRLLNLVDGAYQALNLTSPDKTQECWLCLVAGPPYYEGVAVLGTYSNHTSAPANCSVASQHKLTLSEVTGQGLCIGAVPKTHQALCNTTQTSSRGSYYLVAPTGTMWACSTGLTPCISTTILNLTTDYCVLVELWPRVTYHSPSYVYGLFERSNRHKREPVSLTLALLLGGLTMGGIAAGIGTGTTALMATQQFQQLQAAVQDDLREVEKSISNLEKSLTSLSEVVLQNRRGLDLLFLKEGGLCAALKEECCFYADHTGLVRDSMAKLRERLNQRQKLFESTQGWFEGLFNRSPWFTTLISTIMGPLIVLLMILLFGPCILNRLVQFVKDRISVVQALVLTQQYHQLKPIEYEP
Chain of receptor of ecotropic murine leukaemia virus Rec1 (murine) (Q09143 whole entry): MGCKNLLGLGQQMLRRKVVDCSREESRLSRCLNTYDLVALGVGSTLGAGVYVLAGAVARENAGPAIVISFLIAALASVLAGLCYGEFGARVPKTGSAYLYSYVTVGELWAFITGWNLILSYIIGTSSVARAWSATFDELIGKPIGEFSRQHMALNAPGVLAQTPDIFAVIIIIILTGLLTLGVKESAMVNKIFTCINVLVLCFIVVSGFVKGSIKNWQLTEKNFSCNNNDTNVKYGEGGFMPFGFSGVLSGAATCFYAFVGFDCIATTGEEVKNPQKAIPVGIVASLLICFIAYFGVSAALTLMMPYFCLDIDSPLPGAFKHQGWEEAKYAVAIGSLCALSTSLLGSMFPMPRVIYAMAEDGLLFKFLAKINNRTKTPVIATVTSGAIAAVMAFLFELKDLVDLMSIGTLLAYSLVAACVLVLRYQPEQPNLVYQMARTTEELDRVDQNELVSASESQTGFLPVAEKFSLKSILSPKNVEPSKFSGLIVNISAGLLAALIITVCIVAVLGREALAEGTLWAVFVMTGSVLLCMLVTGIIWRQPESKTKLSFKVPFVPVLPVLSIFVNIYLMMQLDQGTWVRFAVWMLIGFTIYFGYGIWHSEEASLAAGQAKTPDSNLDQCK

In assay [1], “envelope protein of ecotropic Friend murine leukaemia virus molecular clone PVC-211 (from UniProt P26803 35-676)” came in with a transduction efficiency (% GFP positive cells) in CHO-S Rec1-I-puro cells of 19%. Moreover, in assay [2], the transduction efficiency (% GFP positive cells) in CHO T-REx Rec1-I-neo cells is 71.1%, the transduction efficiency (% GFP positive cells) in CHO-K1 Rec1-I-neo cells was found to be 48.3% and the transduction efficiency (% GFP positive cells) in CHO-S Rec1-I-puro cells is 73%. In assay [3], this substance showed a fold gene transfer efficiency, CHO-S Rec1-I-puro cells against CHO-S cells of 13 fold; a fold transduction efficiency in CHO-S Rec1-I-puro cells, MLV (PVC-211 Env) against MLV (wtEnv) vector particles above 33 fold; a puromycin-resistant cell colonies counted in ten fields, CHO-S Rec1-I-neo cells transduced once of 41 colonies; a puromycin-resistant cell colonies counted in ten fields, CHO-S Rec1-I-neo cells transduced three times of 230 colonies. Also, in assay [3], the transduction efficiency (% GFP positive cells) in BHK Rec1-I-puro cells amounted to 31%, the transduction efficiency (% GFP positive cells) in CHO-S Rec1-I-puro cells was determined as 15.5% and the transduction efficiency (% GFP positive cells) in HT1080 Rec1-I-neo cells came to 16%.
Regarding “wild type envelope of ecotropic Moloney murine leukaemia virus (from UniProt P03385 34-665)”, the transduction efficiency (% GFP positive cells) in CHO-S Rec1-I-puro cells in assay [1] is 0.56%. In assay [2], this substance came in with a transduction efficiency (% GFP positive cells) in CHO T-REx Rec1-I-neo cells of 9.95%, a transduction efficiency (% GFP positive cells) in CHO-K1 Rec1-I-neo cells of 14.7% and a transduction efficiency (% GFP positive cells) in CHO-S Rec1-I-puro cells of 12.1%. Also, in assay [3], the fold gene transfer efficiency, CHO-S Rec1-I-puro cells against parental CHO-S cells came out at 3 fold; the fold gene transfer, CHO-S Rec1-I-puro cells against CHO-S cells stood at 3.7 fold; the gene transfer efficiency (% GFP positive cells) in CHO-S Rec1-I-puro cells was 1.14%; the transduction efficiency (% GFP positive cells) in BHK Rec1-I-puro cells stood at 4.72%. For the same substance, in assay [3], the transduction efficiency (% GFP positive cells) in CHO-S Rec1-I-puro cells is 0.55% and the transduction efficiency (% GFP positive cells) in HT1080 Rec1-I-neo cells stood at 0.21%.

For the origin of these results see US20140227786A1.
